How the values were obtained:
[1] = system: polarized hCMEC/D3 cell monolayers; experiment: Energy dependent uptake of F-Aβ, flow cytometry with or without ATP depletion; type: in vitro ADME, human; details: 1 μM, 30 min; flow cytometry histograms
[2] = system: lysosomal compartment; details: from 25 nM in extracellular fluid; ref [58]; cited from earlier work
[3] = system: caveolin-1 phosphorylation on tyrosine 14; experiment: Phospho-caveolin-1; type: cell-based, human; details: Src kinase inhibitor pretreatment before Aβ42; hCMEC/D3 cells; western blotting

| Compound | intra-endothelial accumulation in ATP depleted cells compared to control cells [1] | further results |
| --- | --- | --- |
| F-Aβ40: fluorescently labeled soluble Aβ40 | significantly reduced | – |
| F-Aβ42: fluorescently labeled soluble Aβ42 | significantly reduced | – |
| amyloid beta peptide 42 [Aβ42] | – | concentration in the lysosomal compartment [2]: 2500 nM |
| Cc1ccc(-c2nn(C(C)(C)C)c3ncnc(N)c23)cc1 [PP1] | – | effect of pretreatment on Aβ42 induced caveolin-1 phosphorylation [3]: block the phosphorylation |
